The values that follow are results of earlier work, collected in paper PMC6769837.

Data set [1] addresses integrin αvβ8 (Homo sapiens) (UniProt P06756).
In data set [2] the target is integrin αvβ3 (Homo sapiens) (UniProt P06756).
The target in data set [3] is integrin αvβ6 (Homo sapiens) (UniProt P06756).

Turning to LAP-TGFβ1 LAP (from UniProt P01137), the Kd in data set [1] was 0.013 nM; in data set [2], 8500 nM; in data set [3], 10.3 nM.

Broadly, the Kd is the constant that tells how readily two partners part at equilibrium.
